Measured values: patent US7164008B2, “Isolated complexes of endotoxin and MD-2” (priority 2003, dated 2007)

Assays:
TLR4 = molecular target: T1, TLR4 (Homo sapiens, UniProt O00206+Q9Y6Y9); assay: Cell association of [^3H]-LOS forms with HEK/TLR4 cells (liquid scintillation); type: cell-based; settings: [^3H]-LOS-MD-2 0.75 ng/ml, HEK/TLR4 overnight
T1 construct: host or cells: HEK293 stably transfected with TLR4 (HEK/TLR4)
Description: FIG. 3 depicts delivery of [^3H]-LOS-MD-2 but not [^3H]-LOSagg or [^3H]-LOS-sCD14 to HEK/TLR4. HEK (□) or HEK/TLR4 (▪) cells were incubated with [^3H]-LOS (0.75 ng/ml) in the form of LOSagg, LOS-sCD14, or LOS-MD-2. After overnight incubation at 37° C., cells were washed and lysed as described in Methods. The amount of [^3H]-LOS associated with the cells was measured by liquid scintillation spectroscopy. Results are from one experiment in duplicate, representative of three similar experiments.
FIG. 4 depicts the effects of added MD-2 on activation of HEK/TLR4 by [^3H]-LOS-MD-2 and delivery of [^3H]-LOS-MD-2 to HEK/TLR4. […] After overnight incubation, extracellular accumulation of IL-8 was measured. […] Column fractions were analyzed for [^14C]-LOS by liquid scintillation spectroscopy. […] The amount of radioactivity associated with the cells was determined by liquid scintillation spectroscopy. No radioactivity was associated with parental cells.
HEK or HEK/TLR4 cells were grown to confluency in 6 well plates, washed twice with warm PBS, and [^3H]-LOS aggregates or [^3H]-LOS-protein complexes+/−indicated supplements were incubated overnight at 37° C., 5% CO2, and 95% humidity in DMEM, 0.1% HSA with the supplements indicated in the legends to FIGS. 3 and 4. […] The amount of radioactivity associated with the cells was determined by liquid scintillation spectroscopy. Total recovery of radioactivity was >90%.

human airway epithelia = assay: Endotoxin responsiveness of primary human airway epithelia (HBD-2 mRNA real time PCR, NF-κB-luciferase); type: cell-based; settings: N. meningitidis LOS-sCD14 5 ng LOS/ml, 24 hr, HBD-2 real time PCR
Description: FIG. 6 depicts endotoxin responsiveness of well-differentiated primary cultures of human airway epithelia. Polarized epithelia were treated with NTHi LOS (100 ng/ml), sCD14 (100 ng/ml) and LBP (250 ng/ml) by apical application in a 50 μl volume. Twenty-four hours later, epithelia were harvested and analyzed for HBD-2 mRNA expression by real time PCR. As depicted in FIG. 6A, apical stimulation of airway epithelia with NTHi LOS induced little change in HBD-2 MRNA expression (2 epithelia/trial, n=3 different donors, * indicates p<0.05). In contrast, IL-1β markedly induces HBD-2 mRNA. FIG. 6B depicts the polarity of epithelial responses to IL-1β and NTHi LOS. […]
FIG. 9 depicts the effects of MD-2 complementation on endotoxin responsiveness in human airway epithelia. […] Fold increase in HBD-2 mRNA expression were quantified by real time PCR. […] NF-κB-luciferase activity was measured 24 hr following endotoxin treatment (n=5 epithelia/condition, * indicates p<0.05). […] 24 hr after endotoxin treatment, HBD-2 expression was quantified by real time PCR. […]
Well differentiated human airway epithelia were treated with N. meningitidis LOS-sCD14 (5 ng LOS/ml), with or without the addition of cell culture supernatants containing rMD-2. […] HBD-2 expression was quantified by real time PCR. […]
Real-time PCR was employed to detect human β-defensin-2 and MD-2 and to quantify changes in expression. […]

T1 sequence (O00206 24-839, one chain of several): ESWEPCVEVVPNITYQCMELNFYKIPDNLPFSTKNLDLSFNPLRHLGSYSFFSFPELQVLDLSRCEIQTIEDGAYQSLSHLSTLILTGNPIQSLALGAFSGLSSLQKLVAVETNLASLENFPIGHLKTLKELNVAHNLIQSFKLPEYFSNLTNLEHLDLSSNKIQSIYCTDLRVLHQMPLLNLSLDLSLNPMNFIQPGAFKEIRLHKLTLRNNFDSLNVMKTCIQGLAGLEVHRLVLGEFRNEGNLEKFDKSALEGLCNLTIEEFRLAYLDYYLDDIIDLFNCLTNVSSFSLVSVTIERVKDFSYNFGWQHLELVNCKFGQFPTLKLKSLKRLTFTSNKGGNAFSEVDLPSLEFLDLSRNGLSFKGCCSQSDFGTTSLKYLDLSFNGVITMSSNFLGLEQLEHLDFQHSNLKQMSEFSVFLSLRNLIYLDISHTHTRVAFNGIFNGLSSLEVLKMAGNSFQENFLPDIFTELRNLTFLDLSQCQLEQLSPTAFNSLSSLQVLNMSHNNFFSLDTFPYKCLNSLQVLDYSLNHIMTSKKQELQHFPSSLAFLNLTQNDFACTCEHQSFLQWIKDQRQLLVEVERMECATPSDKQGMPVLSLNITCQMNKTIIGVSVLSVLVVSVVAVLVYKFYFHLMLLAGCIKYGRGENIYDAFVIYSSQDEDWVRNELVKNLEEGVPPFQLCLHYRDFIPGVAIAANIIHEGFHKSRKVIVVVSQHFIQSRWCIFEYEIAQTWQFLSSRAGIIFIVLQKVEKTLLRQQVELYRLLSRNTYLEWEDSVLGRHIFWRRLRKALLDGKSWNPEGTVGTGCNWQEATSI

B1: wt MD-2: soluble polyhistidine-tagged recombinant wild-type MD-2 in conditioned insect cell culture medium (protein)
chain: QKQYWVCNSSDASISYTYCDKMQYPISINVNPCIELKRSKGLLHIFYIPRRDLKQLYFNLYITVNTMNLPKRKEVICRGSDDDYSFCRALKGETVNTTISFSFKGIKFSKGKYKCVVEAISGSPEEMLFCLEFVILHQPNSNHHHHHH
effect of excess MD-2 on TLR4-dependent cell association of [^3H]-LOS-MD-2 (TLR4): blocked
increase of response of human airway epithelial cultures to LOS-sCD14 (human airway epithelia): ≥ 100 fold
